How the values were obtained:
[1] = biological target: Recombinant Tat (86 residues, BH10 isolate) (HIV-1 (BH10 isolate)) (UniProt P69697); assay: SPR
[2] = biological target: Tat-CypA complex formed beforehand (HIV-1 (BH10 isolate) | human) (UniProt P69697); assay: SPR
[3] = biological target: Recombinant human CypA (human) (UniProt P62937); assay: MST
[4] = biological target: Tat-CypA complex formed beforehand (HIV-1 (BH10 isolate) | human) (UniProt P69697); assay: MST
[5] = biological target: CypA-CA complex formed beforehand (human | HIV-1) (UniProt P62937); assay: MST

## CypA-CA complex formed beforehand (from UniProt P62937 1-165)
[1]
  Kd: 95 nM

## Recombinant HIV-1 capsid protein (CA) (natural protein)
[2]
  Kd: 110 nM
[3]
  Kd: 8300 nM
[4]
  Kd: 5500 nM

## Recombinant Tat (86 residues, BH10 isolate) (from UniProt P69697 1-86) (natural protein)
[5]
  Kd: 55 nM
